Data on 16 molecules can be found in patent publication US20230028476A1 (EVOTEC INTERNATIONAL, published 2023).

Common to all, as to test: cell-based or functional assay
Assay [1] deals with human IFN receptor on HEK-Blue IFN-α/β cells (human).
Assay [2] deals with T1, human CD40 (human, UniProt P25942 21-277).
Assay [3] concerns the target T1, human CD40. This is another data set of the same source.
Assay [4] has as its target human IFN receptor on HEK-Blue IFN-α/β cells (human). The source holds these as a separate data set.
Assay [5] addresses T1, human CD40. This is another data set of the same source.

Positions count from the first letter of the chain named. Read-outs that look alike come from different tables or passages of the source.

T1 sequence (P25942 21-277): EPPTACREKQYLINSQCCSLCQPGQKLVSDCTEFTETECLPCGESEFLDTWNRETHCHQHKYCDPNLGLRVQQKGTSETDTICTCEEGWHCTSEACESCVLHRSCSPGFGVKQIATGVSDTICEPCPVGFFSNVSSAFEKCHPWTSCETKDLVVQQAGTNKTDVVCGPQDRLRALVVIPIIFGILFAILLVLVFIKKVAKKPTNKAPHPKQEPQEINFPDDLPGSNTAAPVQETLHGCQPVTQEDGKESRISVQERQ

B1: IFA10 (antibody, human IgG2, kappa)
heavy: not shown
light: DIQMTQSPSSVSASVGDRVTITCRASQGIYSWLAWYQQKPGKAPNLLIYTASTLQSGVPSRFSGSGSGTDFTLTISSLQPEDFATYYCQQANIFPLTFGGGTKVEIKRTVAAPSVFIFPPSDEQLKSGTASVVCLLNNFYPREAKVQWKVDNALQSGNSQESVTEQDSKDSTYSLSSTLTLSKADYEKHKVYACEVTHQGLSSPVTKSFNRGEC
On to B1, for which, in assay [1], the “IFNβ EC50 (HEK-Blue IFN-α/β reporter cells)” value (from here on “IFNβ EC50”) was determined as 0.0045 µg/mL. In the assay with human CD40 [2], the “CD40 EC50 (HEK-Blue CD40L reporter cells)” value (“CD40 EC50” for short) amounted to 0.0265 µg/mL.

B2: IFA9 (antibody, human IgG2, kappa)
heavy: not shown
light: B1 light
Take B2: in assay [1], the “IFNβ EC50” value came to 0.0007 µg/mL. The “CD40 EC50” value with human CD40 [2] is 0.0426 µg/mL.

B3: IFA8 (antibody, human IgG2, kappa)
heavy: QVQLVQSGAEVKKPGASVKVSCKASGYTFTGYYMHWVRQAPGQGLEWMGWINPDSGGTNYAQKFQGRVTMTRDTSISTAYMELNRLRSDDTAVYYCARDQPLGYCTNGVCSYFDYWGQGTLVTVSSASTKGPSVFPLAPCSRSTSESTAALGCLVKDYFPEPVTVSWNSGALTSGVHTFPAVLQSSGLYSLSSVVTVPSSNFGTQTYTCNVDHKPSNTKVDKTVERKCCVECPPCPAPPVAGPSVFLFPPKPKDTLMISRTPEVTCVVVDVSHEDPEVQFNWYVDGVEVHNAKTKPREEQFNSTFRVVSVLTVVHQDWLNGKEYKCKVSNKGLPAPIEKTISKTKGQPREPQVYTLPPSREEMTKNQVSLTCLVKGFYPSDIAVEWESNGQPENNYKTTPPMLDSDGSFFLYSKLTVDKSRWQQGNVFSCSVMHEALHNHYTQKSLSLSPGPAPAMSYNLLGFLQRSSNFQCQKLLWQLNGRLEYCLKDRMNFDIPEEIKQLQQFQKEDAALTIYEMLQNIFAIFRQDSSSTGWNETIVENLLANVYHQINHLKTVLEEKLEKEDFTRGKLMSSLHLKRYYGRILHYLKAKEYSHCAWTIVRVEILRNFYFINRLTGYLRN
light: B1 light
Consider B3, for which the “IFNβ EC50” value in assay [1] is 0.0029 µg/mL. Further, in the assay with human CD40 [2], the “CD40 EC50” value was 0.0397 µg/mL.

B4: agonistic anti-CD40 antibody CP870,893 (antibody, human IgG2, kappa)
heavy: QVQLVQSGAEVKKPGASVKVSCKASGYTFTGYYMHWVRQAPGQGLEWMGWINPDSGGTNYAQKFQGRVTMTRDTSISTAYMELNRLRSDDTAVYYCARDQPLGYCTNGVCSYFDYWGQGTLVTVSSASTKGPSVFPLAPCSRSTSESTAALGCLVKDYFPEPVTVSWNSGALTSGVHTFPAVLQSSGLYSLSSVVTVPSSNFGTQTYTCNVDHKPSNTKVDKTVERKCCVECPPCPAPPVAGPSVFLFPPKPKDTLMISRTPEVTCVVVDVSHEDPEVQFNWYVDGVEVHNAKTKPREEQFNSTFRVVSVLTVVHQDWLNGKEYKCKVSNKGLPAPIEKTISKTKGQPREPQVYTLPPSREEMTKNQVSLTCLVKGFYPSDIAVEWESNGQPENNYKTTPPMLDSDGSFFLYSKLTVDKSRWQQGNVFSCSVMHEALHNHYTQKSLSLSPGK
light: B1 light
As to B4, in the assay with human CD40 [3], the “EC50, agonistic CD40 activity in the experiment of FIG. 3 (HEK-Blue CD40L reporter cells)” value is 0.057 µg/mL; the “EC50, potency on CD40 pathway (HEK-Blue CD40L reporter cells)” value lay within 0.03 to 0.08 µg/mL; the “mean EC50, agonistic CD40 activity (HEK-Blue CD40L reporter cells)” value worked out at 0.048 µg/mL.

B5: IFA49 (antibody, human IgG2, kappa)
heavy: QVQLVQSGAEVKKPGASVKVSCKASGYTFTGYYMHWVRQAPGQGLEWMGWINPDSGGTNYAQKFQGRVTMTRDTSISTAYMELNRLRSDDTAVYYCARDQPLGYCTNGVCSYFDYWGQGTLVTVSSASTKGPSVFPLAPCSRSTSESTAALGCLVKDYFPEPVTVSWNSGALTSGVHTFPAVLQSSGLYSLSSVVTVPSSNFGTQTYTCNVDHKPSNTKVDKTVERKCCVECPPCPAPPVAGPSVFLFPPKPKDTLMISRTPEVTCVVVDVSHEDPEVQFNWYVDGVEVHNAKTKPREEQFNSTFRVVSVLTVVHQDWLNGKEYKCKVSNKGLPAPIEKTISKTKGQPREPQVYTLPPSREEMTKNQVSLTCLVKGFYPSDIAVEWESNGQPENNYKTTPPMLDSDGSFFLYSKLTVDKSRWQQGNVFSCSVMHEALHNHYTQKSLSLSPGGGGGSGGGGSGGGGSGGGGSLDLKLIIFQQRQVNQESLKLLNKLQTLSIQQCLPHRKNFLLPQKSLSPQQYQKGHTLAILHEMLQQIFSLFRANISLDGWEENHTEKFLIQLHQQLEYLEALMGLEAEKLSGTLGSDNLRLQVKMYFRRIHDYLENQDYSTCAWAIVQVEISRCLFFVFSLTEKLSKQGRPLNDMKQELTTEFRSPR
light: B1 light
B5: the “IFNε EC50 (HEK-Blue IFN-α/β reporter cells)” value in assay [1] was determined as 0.0782 µg/mL. For the same molecule, the “CD40 EC50” value with human CD40 [2] amounted to 0.0658 µg/mL.

B6: IFA11 (antibody, human IgG2, kappa)
heavy: not shown
light: B1 light
Consider B6, for which the “IFNβ EC50” value in assay [1] came out at 0.00178 µg/mL. Besides, in the assay with human CD40 [2], the “CD40 EC50” value was 0.0428 µg/mL.

B7: IFA12 (antibody, human IgG2, kappa)
light: DIQMTQSPSSVSASVGDRVTITCRASQGIYSWLAWYQQKPGKAPNLLIYTASTLQSGVPSRFSGSGSGTDFTLTISSLQPEDFATYYCQQANIFPLTFGGGTKVEIKRTVAAPSVFIFPPSDEQLKSGTASVVCLLNNFYPREAKVQWKVDNALQSGNSQESVTEQDSKDSTYSLSSTLTLSKADYEKHKVYACEVTHQGLSSPVTKSFNRGECPAPAMSYNLLGFLQRSSNFQCQKLLWQLNGRLEYCLKDRMNFDIPEEIKQLQQFQKEDAALTIYEMLQNIFAIFRQDSSSTGWNETIVENLLANVYHQINHLKTVLEEKLEKEDFTRGKLMSSLHLKRYYGRILHYLKAKEYSHCAWTIVRVEILRNFYFINRLTGYLRN
heavy: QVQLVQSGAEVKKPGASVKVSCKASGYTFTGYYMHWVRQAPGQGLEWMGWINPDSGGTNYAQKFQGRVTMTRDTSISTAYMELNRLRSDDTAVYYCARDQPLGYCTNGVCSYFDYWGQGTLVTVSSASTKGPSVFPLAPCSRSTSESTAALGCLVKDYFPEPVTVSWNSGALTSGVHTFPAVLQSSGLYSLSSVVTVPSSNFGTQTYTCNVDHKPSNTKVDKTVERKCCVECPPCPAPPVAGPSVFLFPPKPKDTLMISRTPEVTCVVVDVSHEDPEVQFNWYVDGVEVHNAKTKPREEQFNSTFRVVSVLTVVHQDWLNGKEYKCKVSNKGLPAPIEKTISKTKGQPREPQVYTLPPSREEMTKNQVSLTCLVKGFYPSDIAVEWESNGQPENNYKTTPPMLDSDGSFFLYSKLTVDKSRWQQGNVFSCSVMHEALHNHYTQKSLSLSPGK
As to B7, in assay [1], the “IFNβ EC50” value turned out to be 0.00364 µg/mL. Moreover, the “CD40 EC50” value with human CD40 [2] was 0.105 µg/mL.

B8: IFA13 (antibody, human IgG2, kappa)
light: B7 light with C235S
heavy: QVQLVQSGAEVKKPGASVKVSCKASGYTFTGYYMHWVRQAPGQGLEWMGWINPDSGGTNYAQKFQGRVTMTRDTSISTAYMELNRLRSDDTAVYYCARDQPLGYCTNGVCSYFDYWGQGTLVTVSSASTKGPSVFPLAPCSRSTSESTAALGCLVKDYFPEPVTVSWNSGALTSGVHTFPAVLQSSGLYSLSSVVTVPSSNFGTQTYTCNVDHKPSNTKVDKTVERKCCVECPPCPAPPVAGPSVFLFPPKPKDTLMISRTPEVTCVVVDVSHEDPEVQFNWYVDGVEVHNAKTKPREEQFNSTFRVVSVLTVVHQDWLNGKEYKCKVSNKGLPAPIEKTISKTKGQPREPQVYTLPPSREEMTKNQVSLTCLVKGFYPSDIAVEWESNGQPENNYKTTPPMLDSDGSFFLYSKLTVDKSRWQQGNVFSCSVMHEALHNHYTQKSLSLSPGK
With B8, the “IFNβ EC50” value in assay [1] came out at 0.0007 µg/mL. The “CD40 EC50” value with human CD40 [2] turned out to be 0.192 µg/mL.

B9: IFA20 (antibody, human IgG2, kappa)
light: DIQMTQSPSSVSASVGDRVTITCRASQGIYSWLAWYQQKPGKAPNLLIYTASTLQSGVPSRFSGSGSGTDFTLTISSLQPEDFATYYCQQANIFPLTFGGGTKVEIKRTVAAPSVFIFPPSDEQLKSGTASVVCLLNNFYPREAKVQWKVDNALQSGNSQESVTEQDSKDSTYSLSSTLTLSKADYEKHKVYACEVTHQGLSSPVTKSFNRGECAEAAAKEAAAKAAEAAAKEAAAKAMSYNLLGFLQRSSNFQSQKLLWQLNGRLEYCLKDRMNFDIPEEIKQLQQFQKEDAALTIYEMLQNIFAIFRQDSSSTGWNETIVENLLANVYHQINHLKTVLEEKLEKEDFTRGKLMSSLHLKRYYGRILHYLKAKEYSHCAWTIVRVEILRNFYFINRLTGYLRN
heavy: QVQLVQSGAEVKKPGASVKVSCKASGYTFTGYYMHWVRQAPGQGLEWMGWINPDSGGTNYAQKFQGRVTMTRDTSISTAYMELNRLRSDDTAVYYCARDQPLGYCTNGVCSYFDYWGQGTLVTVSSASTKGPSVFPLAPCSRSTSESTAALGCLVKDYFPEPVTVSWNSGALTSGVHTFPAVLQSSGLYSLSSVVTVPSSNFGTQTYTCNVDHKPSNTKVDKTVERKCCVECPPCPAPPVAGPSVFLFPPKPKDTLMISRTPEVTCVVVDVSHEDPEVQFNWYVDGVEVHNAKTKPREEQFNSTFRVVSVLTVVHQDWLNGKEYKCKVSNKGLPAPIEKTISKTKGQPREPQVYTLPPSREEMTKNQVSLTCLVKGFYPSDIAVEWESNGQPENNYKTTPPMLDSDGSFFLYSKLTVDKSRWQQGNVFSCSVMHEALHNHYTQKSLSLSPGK
Regarding B9, the “IFNβ EC50” value in assay [1] was 0.00234 µg/mL. In addition, in the assay with human CD40 [2], the “CD40 EC50” value was 0.182 µg/mL.

B10: IFA1 (antibody, human IgG2, kappa)
light: DIQMTQSPSSVSASVGDRVTITCRASQGIYSWLAWYQQKPGKAPNLLIYTASTLQSGVPSRFSGSGSGTDFTLTISSLQPEDFATYYCQQANIFPLTFGGGTKVEIKRTVAAPSVFIFPPSDEQLKSGTASVVCLLNNFYPREAKVQWKVDNALQSGNSQESVTEQDSKDSTYSLSSTLTLSKADYEKHKVYACEVTHQGLSSPVTKSFNRGECAEAAAKEAAAKAMSYNLLGFLQRSSNFQCQKLLWQLNGRLEYCLKDRMNFDIPEEIKQLQQFQKEDAALTIYEMLQNIFAIFRQDSSSTGWNETIVENLLANVYHQINHLKTVLEEKLEKEDFTRGKLMSSLHLKRYYGRILHYLKAKEYSHCAWTIVRVEILRNFYFINRLTGYLRN
heavy: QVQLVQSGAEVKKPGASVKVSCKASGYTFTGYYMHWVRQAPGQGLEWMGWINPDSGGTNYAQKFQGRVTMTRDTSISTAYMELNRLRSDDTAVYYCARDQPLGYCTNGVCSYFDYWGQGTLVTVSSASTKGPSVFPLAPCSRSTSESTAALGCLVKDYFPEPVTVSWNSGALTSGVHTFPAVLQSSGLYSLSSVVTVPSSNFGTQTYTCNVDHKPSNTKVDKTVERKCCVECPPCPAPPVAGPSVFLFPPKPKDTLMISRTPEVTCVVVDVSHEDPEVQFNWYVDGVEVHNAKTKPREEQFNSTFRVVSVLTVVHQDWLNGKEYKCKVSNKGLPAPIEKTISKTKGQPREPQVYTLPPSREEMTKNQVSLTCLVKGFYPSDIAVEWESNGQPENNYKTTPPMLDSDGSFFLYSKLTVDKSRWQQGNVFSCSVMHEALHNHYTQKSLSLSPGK
For B10, in assay [1], the “IFNβ EC50” value worked out at 0.00164 µg/mL. Also, the “CD40 EC50” value with human CD40 [2] was 0.0741 µg/mL.

B11: IFA2 (antibody, human IgG2, kappa)
light: B10 light with C243S
heavy: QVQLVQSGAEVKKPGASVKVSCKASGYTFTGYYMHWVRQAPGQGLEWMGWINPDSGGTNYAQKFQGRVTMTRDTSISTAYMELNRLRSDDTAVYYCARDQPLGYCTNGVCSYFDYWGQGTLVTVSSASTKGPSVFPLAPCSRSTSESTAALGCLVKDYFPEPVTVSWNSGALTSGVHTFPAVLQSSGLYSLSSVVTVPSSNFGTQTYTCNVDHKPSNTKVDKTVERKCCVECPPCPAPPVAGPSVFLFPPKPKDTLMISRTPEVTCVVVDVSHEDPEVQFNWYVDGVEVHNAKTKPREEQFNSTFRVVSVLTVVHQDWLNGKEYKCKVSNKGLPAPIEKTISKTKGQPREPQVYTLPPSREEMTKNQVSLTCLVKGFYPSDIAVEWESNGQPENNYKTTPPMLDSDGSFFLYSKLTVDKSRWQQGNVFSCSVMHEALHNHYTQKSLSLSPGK
In the case of B11, the “IFNβ EC50” value in assay [1] was determined as 0.00014 µg/mL. Besides, in the assay with human CD40 [2], the “CD40 EC50” value amounted to 0.111 µg/mL.

B12: IFA106 (antibody, human IgG2, kappa)
heavy: QVQLVESGGGVVQPGKSLRLSCAASGFTFSSNGIHWVRQAPGKGLEWVAVIWSDGSNKFYADSVKGRFTISRDNSKNTLYLQMNSLRAEDTAVYYCARASGSGSYYNFFDYWGQGTLVTVSSASTKGPSVFPLAPCSRSTSESTAALGCLVKDYFPEPVTVSWNSGALTSGVHTFPAVLQSSGLYSLSSVVTVPSSNFGTQTYTCNVDHKPSNTKVDKTVERKCCVECPPCPAPPVAGPSVFLFPPKPKDTLMISRTPEVTCVVVDVSHEDPEVQFNWYVDGVEVHNAKTKPREEQFNSTFRVVSVLTVVHQDWLNGKEYKCKVSNKGLPAPIEKTISKTKGQPREPQVYTLPPSREEMTKNQVSLTCLVKGFYPSDIAVEWESNGQPENNYKTTPPMLDSDGSFFLYSKLTVDKSRWQQGNVFSCSVMHEALHNHYTQKSLSLSPGPAPASYNLLGFLQRSSNFQCQKLLWQLNGRLEYCLKDRMNFDIPEEIKQLQQFQKEDAALTIYEMLQNIFAIFRQDSSSTGWNETIVENLLANVYHQINHLKTVLEEKLEKEDFTRGKLMSSLHLKRYYGRILHYLKAKEYSHCAWTIVRVEILRNFYFINRLTGYLRN
light: not shown
For B12, in assay [4], the “IFNβ EC50” value turned out to be 0.0103 µg/mL. Also, the “CD40 EC50” value with human CD40 [5] amounted to 0.191 µg/mL.

B13: IFA107 (antibody, human IgG2, kappa)
heavy: B12 heavy with C467S
light: not shown
As to B13, the “IFNβ EC50” value in assay [4] stood at 0.00203 µg/mL. Also, the “CD40 EC50” value with human CD40 [5] turned out to be 0.142 µg/mL.

B14: IFA19 (antibody, human IgG2, kappa)
light: DIQMTQSPSSVSASVGDRVTITCRASQGIYSWLAWYQQKPGKAPNLLIYTASTLQSGVPSRFSGSGSGTDFTLTISSLQPEDFATYYCQQANIFPLTFGGGTKVEIKRTVAAPSVFIFPPSDEQLKSGTASVVCLLNNFYPREAKVQWKVDNALQSGNSQESVTEQDSKDSTYSLSSTLTLSKADYEKHKVYACEVTHQGLSSPVTKSFNRGECSGGTSGSTSGTGSMSYNLLGFLQRSSNFQSQKLLWQLNGRLEYCLKDRMNFDIPEEIKQLQQFQKEDAALTIYEMLQNIFAIFRQDSSSTGWNETIVENLLANVYHQINHLKTVLEEKLEKEDFTRGKLMSSLHLKRYYGRILHYLKAKEYSHCAWTIVRVEILRNFYFINRLTGYLRN
heavy: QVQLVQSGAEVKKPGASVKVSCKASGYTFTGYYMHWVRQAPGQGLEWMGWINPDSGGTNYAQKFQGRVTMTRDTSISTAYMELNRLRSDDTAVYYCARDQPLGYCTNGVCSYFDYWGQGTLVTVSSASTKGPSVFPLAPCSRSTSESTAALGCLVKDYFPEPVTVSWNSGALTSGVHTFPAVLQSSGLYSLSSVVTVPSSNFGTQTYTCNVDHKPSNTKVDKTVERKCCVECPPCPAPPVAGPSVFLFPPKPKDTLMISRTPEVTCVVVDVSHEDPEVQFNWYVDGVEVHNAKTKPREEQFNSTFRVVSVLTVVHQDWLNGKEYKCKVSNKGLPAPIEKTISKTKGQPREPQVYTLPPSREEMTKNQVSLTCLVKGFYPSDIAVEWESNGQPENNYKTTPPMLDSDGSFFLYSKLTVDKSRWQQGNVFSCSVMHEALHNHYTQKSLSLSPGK
In the case of B14, the “IFNβ EC50” value in assay [1] came out at 0.0013 µg/mL. In addition, the “CD40 EC50” value in the assay with human CD40 [2] amounted to 0.11 µg/mL.

B15: IFA108 (antibody, human IgG2, kappa)
heavy: QVQLVESGGGVVQPGKSLRLSCAASGFTFSSNGIHWVRQAPGKGLEWVAVIWSDGSNKFYADSVKGRFTISRDNSKNTLYLQMNSLRAEDTAVYYCARASGSGSYYNFFDYWGQGTLVTVSSASTKGPSVFPLAPCSRSTSESTAALGCLVKDYFPEPVTVSWNSGALTSGVHTFPAVLQSSGLYSLSSVVTVPSSNFGTQTYTCNVDHKPSNTKVDKTVERKCCVECPPCPAPPVAGPSVFLFPPKPKDTLMISRTPEVTCVVVDVSHEDPEVQFNWYVDGVEVHNAKTKPREEQFNSTFRVVSVLTVVHQDWLNGKEYKCKVSNKGLPAPIEKTISKTKGQPREPQVYTLPPSREEMTKNQVSLTCLVKGFYPSDIAVEWESNGQPENNYKTTPPMLDSDGSFFLYSKLTVDKSRWQQGNVFSCSVMHEALHNHYTQKSLSLSPGAEAAAKEAAAKASYNLLGFLQRSSNFQCQKLLWQLNGRLEYCLKDRMNFDIPEEIKQLQQFQKEDAALTIYEMLQNIFAIFRQDSSSTGWNETIVENLLANVYHQINHLKTVLEEKLEKEDFTRGKLMSSLHLKRYYGRILHYLKAKEYSHCAWTIVRVEILRNFYFINRLTGYLRN
light: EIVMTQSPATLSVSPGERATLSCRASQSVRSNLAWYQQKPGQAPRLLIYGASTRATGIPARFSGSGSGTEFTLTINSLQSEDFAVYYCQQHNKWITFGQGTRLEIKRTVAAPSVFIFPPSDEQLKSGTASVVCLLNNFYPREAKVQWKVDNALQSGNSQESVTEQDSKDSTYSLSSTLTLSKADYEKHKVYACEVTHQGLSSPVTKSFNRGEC
Regarding B15, the “IFNβ EC50” value in assay [4] worked out at 0.00127 µg/mL. The “CD40 EC50” value with human CD40 [5] stood at 0.0373 µg/mL.

B16: IFA109 (antibody, human IgG2, kappa)
heavy: B15 heavy with C475S
light: not shown
In the case of B16, the “IFNβ EC50” value in assay [4] turned out to be 0.00045 µg/mL. Besides, in the assay with human CD40 [5], the “CD40 EC50” value was 0.03 µg/mL.
